Article PMC8298264, “Function of cofactor Akirin2 in the regulation of gene expression in model human neutrophil-like HL60 cells” (Bioscience Reports, 2021)

Tested on: human HL60 cells
Assay: SWATH-MS proteomics, differential protein representation, akirin2 KO vs WT HL60 cells
Format: cell-based
Details: akirin2 KO vs WT HL60 cells, sheet "Under-represented in KO"
Summary of the method: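 First, proteins from wild-type and knockout cells are digested with trypsin by FASP. Next, pooled IDA runs generate a reference ion library. Then six samples of 5 µg each are acquired by data-independent SWATH, and protein areas are normalized to the summed area of all detected proteins.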

Row | Molecule | Fold Change | Log (Fold Change) | Fold Change (KO vs WT) | Log (Fold Change) (KO vs WT)
1 | sp¦Q09161¦NCBP1_HUMAN (protein, UniProt Q09161 1-790, looked up) Nuclear cap-binding protein …: MSRRRHSDENDGGQPHKRRKTSDANETEDHLESLICKVGEKSACSLESNLEGLAGVLEADLPNYKSKILRLLCTVARLLPEKLTIYTTLVGLLNARNYNFGGEFVEAMIRQLKESLKANNYNEAVYLVRFLSDLVNCHVIAAPSMVAMFENFVSVTQEEDVPQVRRDWYVYAFLSSLPWVGKELYEKKDAEMDRIFANTESYLKRRQKTHVPMLQVWTADKPHPQEEYLDCLWAQIQKLKKDRWQERHILRPYLAFDSILCEALQHNLPPFTPPPHTEDSVYPMPRVIFRMFDYTDDPEGPVMPGSHSVERFVIEENLHCIIKSHWKERKTCAAQLVSYPGKNKIPLNYHIVEVIFAELFQLPAPPHIDVMYTTLLIELCKLQPGSLPQVLAQATEMLYMRLDTMNTTCVDRFINWFSHHLSNFQFRWSWEDWSDCLSQDPESPKPKFVREVLEKCMRLSYHQRILDIVPPTFSALCPANPTCIYKYGDESSNSLPGHSVALCLAVAFKSKATNDEIFSILKDVPNPNQDDDDDEGFSFNPLKIEVFVQTLLHLAAKSFSHSFSALAKFHEVFKTLAESDEGKLHVLRVMFEVWRNHPQMIAVLVDKMIRTQIVDCAAVANWIFSSELSRDFTRLFVWEILHSTIRKMNKHVLKIQKELEEAKEKLARQHKRRSDDDDRSSDRKDGVLEEQIERLQEKVESAQSEQKNLFLVIFQRFIMILTEHLVRCETDGTSVLTPWYKNCIERLQQIFLQHHQIIQQYMVTLENLLFTAELDPHILAVFQQFCALQA | 0.2701 | -0.5684 |  | 
2 | sp¦Q9Y5J7¦TIM9_HUMAN (protein, UniProt Q9Y5J7 2-89, looked up) Mitochondrial import inner …: AAQIPESDQIKQFKEFLGTYNKLTETCFLDCVKDFTTREVKPEETTCSEHCLQKYLKMTQRISMRFQEYHIQQNEALAAKAGLLGQPR |  |  | 0.5881 | -0.2305
3 | sp¦O95104¦SCAF4_HUMAN (protein, UniProt O95104 1-1147, looked up) SR-related and CTD-associated …: MDAVNAFNQELFSLMDMKPPISRAKMILITKAAIKAIKLYKHVVQIVEKFIKKCKPEYKVPGLYVIDSIVRQSRHQFGTDKDVFGPRFSKNITATFQYLYLCPSEDKSKIVRVLNLWQKNGVFKIEIIQPLLDMAAGTSNAAPVAENVTNNEGSPPPPVKVSSEPPTQATPNSVPAVPQLPSSDAFAAVAQLFQTTQGQQLQQILQTFQQPPKPQSPALDNAVMAQVQAITAQLKTTPTQPSEQKAAFPPPEQKTAFDKKLLDRFDYDDEPEAVEESKKEDTTAVTTTAPAAAVPPAPTATVPAAAAPAAASPPPPQAPFGFPGDGMQQPAYTQHQNMDQFQPRMMGIQQDPMHHQVPLPPNGQMPGFGLLPTPPFPPMAQPVIPPTPPVQQPFQASFQAQNEPLTQKPHQQEMEVEQPCIQEVKRHMSDNRKSRSRSASRSPKRRRSRSGSRSRRSRHRRSRSRSRDRRRHSPRSRSQERRDREKERERRQKGLPQVKPETASVCSTTLWVGQLDKRTTQQDVASLLEEFGPIESINMIPPRGCAYIVMVHRQDAYRALQKLSRGNYKVNQKSIKIAWALNKGIKADYKQYWDVELGVTYIPWDKVKPEELESFCEGGMLDSDTLNPDWKGIPKKPENEVAQNGGAETSHTEPVSPIPKPLPVPVPPIPVPAPITVPPPQVPPHQPGPPVVGALQPPAFTPPLGIPPPGFGPGVPPPPPPPPFLRPGFNPMHLPPGFLPPGPPPPITPPVSIPPPHTPPISIPNSTIAGINEDTTKDLSIGNPIPTVVSGARGNAESGDSVKMYGSAVPPAAPTNLPTPPVTQPVSLLGTQGVAPGPVIGLQAPSTGLLGARPGLIPLQRPPGMPPPHLQRFPLMPPRPMPPHMMHRGPPPGPGGFAMPPPHGMKGPFPPHGPFVRPGGMPGLGGPGPGPGGPEDRDGRQQPPQQPQQQPQPQAPQQPQQQQQQQPPPSQQPPPTQQQPQQFRNDNRQQFNSGRDQERFGRRSFGNRVENDRERYGNRNDDRDNSNRDRREWGRRSPDRDRHRDLEERNRRSSGHRDRERDSRDRESRREKEEARGKEKPEVTDRAGGNKTVEPPISQVGNVDTASELEKGVSEAAVLKPSEELPAEATSSVEPEKDSGSAAEAPR |  |  | 0.586 | -0.2321
4 | sp¦P49588¦SYAC_HUMAN (protein, UniProt P49588 1-968, looked up) Alanine--tRNA ligase, …: MDSTLTASEIRQRFIDFFKRNEHTYVHSSATIPLDDPTLLFANAGMNQFKPIFLNTIDPSHPMAKLSRAANTQKCIRAGGKHNDLDDVGKDVYHHTFFEMLGSWSFGDYFKELACKMALELLTQEFGIPIERLYVTYFGGDEAAGLEADLECKQIWQNLGLDDTKILPGNMKDNFWEMGDTGPCGPCSEIHYDRIGGRDAAHLVNQDDPNVLEIWNLVFIQYNREADGILKPLPKKSIDTGMGLERLVSVLQNKMSNYDTDLFVPYFEAIQKGTGARPYTGKVGAEDADGIDMAYRVLADHARTITVALADGGRPDNTGRGYVLRRILRRAVRYAHEKLNASRGFFATLVDVVVQSLGDAFPELKKDPDMVKDIINEEEVQFLKTLSRGRRILDRKIQSLGDSKTIPGDTAWLLYDTYGFPVDLTGLIAEEKGLVVDMDGFEEERKLAQLKSQGKGAGGEDLIMLDIYAIEELRARGLEVTDDSPKYNYHLDSSGSYVFENTVATVMALRREKMFVEEVSTGQECGVVLDKTCFYAEQGGQIYDEGYLVKVDDSSEDKTEFTVKNAQVRGGYVLHIGTIYGDLKVGDQVWLFIDEPRRRPIMSNHTATHILNFALRSVLGEADQKGSLVAPDRLRFDFTAKGAMSTQQIKKAEEIANEMIEAAKAVYTQDCPLAAAKAIQGLRAVFDETYPDPVRVVSIGVPVSELLDDPSGPAGSLTSVEFCGGTHLRNSSHAGAFVIVTEEAIAKGIRRIVAVTGAEAQKALRKAESLKKCLSVMEAKVKAQTAPNKDVQREIADLGEALATAVIPQWQKDELRETLKSLKKVMDDLDRASKADVQKRVLEKTKQFIDSNPNQPLVILEMESGASAKALNEALKLFKMHSPQTSAMLFTVDNEAGKITCLCQVPQNAANRGLKASEWVQQVSGLMDGKGGGKDVSAQATGKNVGCLQEALQLATSFAQLRLGDVKN |  |  | 0.5997 | -0.2221
5 | sp¦O75663¦TIPRL_HUMAN (protein, UniProt O75663 1-272, looked up) TIP41-like protein: MMIHGFQSSHRDFCFGPWKLTASKTHIMKSADVEKLADELHMPSLPEMMFGDNVLRIQHGSGFGIEFNATDALRCVNNYQGMLKVACAEEWQESRTEGEHSKEVIKPYDWTYTTDYKGTLLGESLKLKVVPTTDHIDTEKLKAREQIKFFEEVLLFEDELHDHGVSSLSVKIRVMPSSFFLLLRFFLRIDGVLIRMNDTRLYHEADKTYMLREYTSRESKISSLMHVPPSLFTEPNEISQYLPIKEAVCEKLIFPERIDPNPADSQKSTQVE |  |  | 0.5915 | -0.228
6 | sp¦Q15007¦FL2D_HUMAN (protein, UniProt Q15007 1-396, looked up) Pre-mRNA-splicing regulator …: MTNEEPLPKKVRLSETDFKVMARDELILRWKQYEAYVQALEGKYTDLNSNDVTGLRESEEKLKQQQQESARRENILVMRLATKEQEMQECTTQIQYLKQVQQPSVAQLRSTMVDPAINLFFLKMKGELEQTKDKLEQAQNELSAWKFTPDSQTGKKLMAKCRMLIQENQELGRQLSQGRIAQLEAELALQKKYSEELKSSQDELNDFIIQLDEEVEGMQSTILVLQQQLKETRQQLAQYQQQQSQASAPSTSRTTASEPVEQSEATSKDCSRLTNGPSNGSSSRQRTSGSGFHREGNTTEDDFPSSPGNGNKSSNSSEERTGRGGSGYVNQLSAGYESVDSPTGSENSLTHQSNDTDSSHDPQEEKAVSGKGNRTVGSRHVQNGLDSSVNVQGSVL |  |  | 0.593 | -0.227
